Laboratory results as given in paper PMC9482650, “Quantitative fragmentomics allow affinity mapping of interactomes” (Nature Communications, 2022).

Key:
Experiment in all cases: holdup assay
Parameters in all cases: key: below the threshold = too weak to quantify, mostly under pKd 3.1 to 4
TX1BP3, O14907 = target: T1, TX1BP3, O14907
T1 sequence (O14907 10-122, limits assumed, looked up): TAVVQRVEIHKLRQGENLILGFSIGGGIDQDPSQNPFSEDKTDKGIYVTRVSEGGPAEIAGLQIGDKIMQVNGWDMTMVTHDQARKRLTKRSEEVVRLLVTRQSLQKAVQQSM

Inadl_10, Q8NI35 = target: Inadl_10, Q8NI35
Inadl_8, Q8NI35 = target: Inadl_8, Q8NI35
LIN7B, Q9HAP6 = target: T2, LIN7B, Q9HAP6
T2 sequence (Q9HAP6 88-185, limits assumed, looked up): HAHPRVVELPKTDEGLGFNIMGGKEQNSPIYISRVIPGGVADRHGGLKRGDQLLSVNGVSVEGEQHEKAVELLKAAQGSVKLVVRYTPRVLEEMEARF

ARHGEF11, O15085 = target: T3, ARHGEF11, O15085
T3 sequence (O15085 42-136, limits assumed, looked up): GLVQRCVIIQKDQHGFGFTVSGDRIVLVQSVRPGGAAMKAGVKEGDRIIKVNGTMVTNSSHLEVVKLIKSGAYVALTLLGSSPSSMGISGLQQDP

HTRA1, Q92743 = target: HTRA1, Q92743
PDZD2_2, O15018 = target: T4, PDZD2_2, O15018
T4 sequence (O15018 329-429, limits assumed, looked up): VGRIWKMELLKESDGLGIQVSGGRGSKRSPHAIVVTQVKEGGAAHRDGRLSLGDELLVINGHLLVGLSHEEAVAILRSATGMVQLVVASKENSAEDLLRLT

GRIP1_2, Q9Y3R0 = target: T5, GRIP1_2, Q9Y3R0
T5 sequence (Q9Y3R0 145-248, limits assumed, looked up): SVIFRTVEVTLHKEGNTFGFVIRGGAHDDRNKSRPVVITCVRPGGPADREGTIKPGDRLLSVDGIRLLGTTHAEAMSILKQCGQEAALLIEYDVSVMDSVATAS

LNX2_3, Q8N448 = target: T6, LNX2_3, Q8N448
T6 sequence (Q8N448 463-564, limits assumed, looked up): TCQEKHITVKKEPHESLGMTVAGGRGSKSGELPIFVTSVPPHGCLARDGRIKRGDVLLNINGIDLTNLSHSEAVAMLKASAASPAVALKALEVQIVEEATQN

AHNAK1, Q09666 = target: AHNAK1, Q09666
PDZRN3_1, Q9UPQ7 = target: T7, PDZRN3_1, Q9UPQ7
T7 sequence (Q9UPQ7 244-349, limits assumed, looked up): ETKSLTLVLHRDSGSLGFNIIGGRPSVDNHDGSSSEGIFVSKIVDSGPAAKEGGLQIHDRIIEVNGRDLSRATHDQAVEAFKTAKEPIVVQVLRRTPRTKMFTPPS

TJP2_1, Q9UDY2 = target: TJP2_1, Q9UDY2
PARD3_3, Q8TEW0 = target: PARD3_3, Q8TEW0
SCRIB_2, Q14160 = target: SCRIB_2, Q14160
LAP2, Q96RT1 = target: LAP2, Q96RT1
SNTB1, Q13884 = target: T8, SNTB1, Q13884
T8 sequence (Q13884 107-205, limits assumed, looked up): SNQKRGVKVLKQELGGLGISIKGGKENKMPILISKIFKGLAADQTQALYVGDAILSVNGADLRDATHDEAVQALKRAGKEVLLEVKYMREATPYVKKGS

GRIP2_3, Q9C0E4 = target: GRIP2_3, Q9C0E4
DFNB31_2, Q9P202 = target: T9, DFNB31_2, Q9P202
T9 sequence (Q9P202 274-371, limits assumed, looked up): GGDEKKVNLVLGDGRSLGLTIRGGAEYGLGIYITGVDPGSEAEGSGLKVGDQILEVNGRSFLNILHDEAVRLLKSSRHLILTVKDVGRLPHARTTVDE

Inadl_5, Q8NI35 = target: Inadl_5, Q8NI35
Inadl_4, Q8NI35 = target: Inadl_4, Q8NI35
PTPN13_1, Q12923 = target: T10, PTPN13_1, Q12923
T10 sequence (Q12923 1088-1188, limits assumed, looked up): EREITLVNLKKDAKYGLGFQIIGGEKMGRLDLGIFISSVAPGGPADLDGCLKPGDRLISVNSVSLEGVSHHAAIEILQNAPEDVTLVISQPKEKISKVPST

Inadl_3, Q8NI35 = target: Inadl_3, Q8NI35
SHANK1, Q9Y566 = target: T11, SHANK1, Q9Y566
T11 sequence (Q9Y566 658-767, limits assumed, looked up): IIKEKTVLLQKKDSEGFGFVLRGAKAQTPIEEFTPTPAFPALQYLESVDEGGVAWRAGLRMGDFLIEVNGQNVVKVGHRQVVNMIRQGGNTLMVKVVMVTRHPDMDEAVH

MAGI3_2, Q5TCQ9 = target: MAGI3_2, Q5TCQ9
GRASP, Q7Z6J2 = target: GRASP, Q7Z6J2
PICK1, Q9NRD5 = target: PICK1, Q9NRD5
[1] = plain residues with an end cap or a label only (N-terminal biotin on a linker: ado-ado)
[2] = plain residues with an end cap or a label only (N-terminal biotin on a linker: ahx)
[3] = plain residues with an end cap or a label only (N-terminal biotin on a linker: (peg)3)

PICK1, Q9NRD5, sequence (Q9NRD5 17-115): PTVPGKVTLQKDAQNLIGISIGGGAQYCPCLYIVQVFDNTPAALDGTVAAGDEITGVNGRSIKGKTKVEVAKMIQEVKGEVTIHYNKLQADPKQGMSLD
HTRA1, Q92743, sequence (Q92743 360-477): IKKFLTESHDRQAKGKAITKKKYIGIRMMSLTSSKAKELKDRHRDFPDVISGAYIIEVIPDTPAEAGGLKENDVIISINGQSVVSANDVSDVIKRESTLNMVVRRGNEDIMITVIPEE
SCRIB_2, Q14160, sequence (Q14160 857-960): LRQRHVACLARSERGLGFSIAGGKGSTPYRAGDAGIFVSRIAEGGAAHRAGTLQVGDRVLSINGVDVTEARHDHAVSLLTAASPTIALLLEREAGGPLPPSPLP
Inadl_4, Q8NI35, sequence (Q8NI35 547-651): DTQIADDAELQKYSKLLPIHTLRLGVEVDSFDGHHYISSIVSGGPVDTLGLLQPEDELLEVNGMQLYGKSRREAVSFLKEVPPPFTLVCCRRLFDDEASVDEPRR
AHNAK1, Q09666, sequence (Q09666 4-100): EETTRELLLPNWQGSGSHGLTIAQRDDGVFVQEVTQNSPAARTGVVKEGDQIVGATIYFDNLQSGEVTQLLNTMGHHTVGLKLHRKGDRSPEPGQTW
Inadl_8, Q8NI35, sequence (Q8NI35 1425-1530): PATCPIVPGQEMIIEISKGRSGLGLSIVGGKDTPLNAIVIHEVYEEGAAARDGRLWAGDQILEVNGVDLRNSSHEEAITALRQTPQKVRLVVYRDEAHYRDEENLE
TJP2_1, Q9UDY2, sequence (Q9UDY2 24-128): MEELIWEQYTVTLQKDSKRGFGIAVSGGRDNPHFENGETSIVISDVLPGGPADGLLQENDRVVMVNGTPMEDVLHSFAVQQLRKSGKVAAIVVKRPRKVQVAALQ
MAGI3_2, Q5TCQ9, sequence (Q5TCQ9 398-503): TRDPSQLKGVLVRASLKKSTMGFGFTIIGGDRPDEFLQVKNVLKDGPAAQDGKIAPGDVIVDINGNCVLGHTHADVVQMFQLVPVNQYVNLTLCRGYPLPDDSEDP
PARD3_3, Q8TEW0, sequence (Q8TEW0 582-685): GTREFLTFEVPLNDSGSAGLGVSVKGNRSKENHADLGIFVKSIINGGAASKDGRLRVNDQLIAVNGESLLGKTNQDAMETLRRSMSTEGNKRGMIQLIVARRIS
LAP2, Q96RT1, sequence (Q96RT1 other isoform, or with tags, fused parts or gaps): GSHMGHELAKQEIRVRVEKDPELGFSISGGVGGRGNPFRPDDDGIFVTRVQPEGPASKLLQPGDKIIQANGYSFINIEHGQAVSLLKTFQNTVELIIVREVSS
Inadl_5, Q8NI35, sequence (Q8NI35 673-780): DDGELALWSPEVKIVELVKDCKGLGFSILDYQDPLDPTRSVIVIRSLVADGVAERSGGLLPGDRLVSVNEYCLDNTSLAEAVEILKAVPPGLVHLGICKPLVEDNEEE
GRIP2_3, Q9C0E4, sequence (Q9C0E4 238-339): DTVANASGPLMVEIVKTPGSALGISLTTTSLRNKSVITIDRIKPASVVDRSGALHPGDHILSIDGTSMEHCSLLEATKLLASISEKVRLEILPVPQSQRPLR
Inadl_10, Q8NI35, sequence (Q8NI35 1673-1763): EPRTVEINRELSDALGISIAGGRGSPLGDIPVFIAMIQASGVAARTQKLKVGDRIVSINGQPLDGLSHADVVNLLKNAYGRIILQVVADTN
GRASP, Q7Z6J2, sequence (Q7Z6J2 96-193): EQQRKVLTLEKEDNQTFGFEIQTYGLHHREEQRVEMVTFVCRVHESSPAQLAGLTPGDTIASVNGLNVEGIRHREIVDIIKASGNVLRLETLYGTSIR
Inadl_3, Q8NI35, sequence (Q8NI35 359-469): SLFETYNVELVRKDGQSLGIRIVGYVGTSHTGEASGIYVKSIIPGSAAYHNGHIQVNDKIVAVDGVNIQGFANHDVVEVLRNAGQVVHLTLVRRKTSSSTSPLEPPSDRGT

## DPAESMESLV [PTPRG, P23470]
TX1BP3, O14907; [1]
  pKd: 4.03
Inadl_10, Q8NI35; [1]
  pKd: below the threshold
Inadl_8, Q8NI35; [1]
  pKd: below the threshold
LIN7B, Q9HAP6; [1]
  pKd: below the threshold
ARHGEF11, O15085; [1]
  pKd: 3.61
HTRA1, Q92743; [1]
  pKd: 4.41
PDZD2_2, O15018; [1]
  pKd: 5.16
GRIP1_2, Q9Y3R0; [1]
  pKd: below the threshold
LNX2_3, Q8N448; [1]
  pKd: below the threshold
AHNAK1, Q09666; [1]
  pKd: below the threshold
PDZRN3_1, Q9UPQ7; [1]
  pKd: 3.96
TJP2_1, Q9UDY2; [1]
  pKd: below the threshold
PARD3_3, Q8TEW0; [1]
  pKd: 3.93
SCRIB_2, Q14160; [1]
  pKd: 3.68
LAP2, Q96RT1; [1]
  pKd: 3.96
SNTB1, Q13884; [1]
  pKd: 4.84
GRIP2_3, Q9C0E4; [1]
  pKd: below the threshold
DFNB31_2, Q9P202; [1]
  pKd: below the threshold
Inadl_5, Q8NI35; [1]
  pKd: below the threshold
Inadl_4, Q8NI35; [1]
  pKd: below the threshold
PTPN13_1, Q12923; [1]
  pKd: below the threshold
Inadl_3, Q8NI35; [1]
  pKd: 4.08
SHANK1, Q9Y566; [1]
  pKd: below the threshold
MAGI3_2, Q5TCQ9; [1]
  pKd: 4.84
GRASP, Q7Z6J2; [1]
  pKd: 3.62
PICK1, Q9NRD5; [1]
  pKd: 4.13

## QPRTWLQSPV [RTKN, Q9BST9]
TX1BP3, O14907; [2]
  pKd: 6.05
Inadl_10, Q8NI35; [2]
  pKd: below the threshold
Inadl_8, Q8NI35; [2]
  pKd: 4.89
LIN7B, Q9HAP6; [2]
  pKd: below the threshold
ARHGEF11, O15085; [2]
  pKd: below the threshold
HTRA1, Q92743; [2]
  pKd: below the threshold
PDZD2_2, O15018; [2]
  pKd: 4.71
GRIP1_2, Q9Y3R0; [2]
  pKd: below the threshold
LNX2_3, Q8N448; [2]
  pKd: below the threshold
AHNAK1, Q09666; [2]
  pKd: below the threshold
PDZRN3_1, Q9UPQ7; [2]
  pKd: below the threshold
TJP2_1, Q9UDY2; [2]
  pKd: below the threshold
PARD3_3, Q8TEW0; [2]
  pKd: below the threshold
SCRIB_2, Q14160; [2]
  pKd: below the threshold
LAP2, Q96RT1; [2]
  pKd: 4.42
SNTB1, Q13884; [2]
  pKd: below the threshold
GRIP2_3, Q9C0E4; [2]
  pKd: below the threshold
DFNB31_2, Q9P202; [2]
  pKd: below the threshold
Inadl_5, Q8NI35; [2]
  pKd: below the threshold
Inadl_4, Q8NI35; [2]
  pKd: below the threshold
PTPN13_1, Q12923; [2]
  pKd: below the threshold
Inadl_3, Q8NI35; [2]
  pKd: below the threshold
SHANK1, Q9Y566; [2]
  pKd: 3.74
MAGI3_2, Q5TCQ9; [2]
  pKd: 4.53
GRASP, Q7Z6J2; [2]
  pKd: 3.9
PICK1, Q9NRD5; [2]
  pKd: below the threshold

## RYEDTTLVEDTVL [WNV-NS5, Q9Q6P4]
TX1BP3, O14907; [3]
  pKd: below the threshold
Inadl_10, Q8NI35; [3]
  pKd: below the threshold
Inadl_8, Q8NI35; [3]
  pKd: below the threshold
LIN7B, Q9HAP6; [3]
  pKd: below the threshold
ARHGEF11, O15085; [3]
  pKd: 3.99
HTRA1, Q92743; [3]
  pKd: 4.58
PDZD2_2, O15018; [3]
  pKd: 4.42
GRIP1_2, Q9Y3R0; [3]
  pKd: below the threshold
LNX2_3, Q8N448; [3]
  pKd: below the threshold
AHNAK1, Q09666; [3]
  pKd: below the threshold
PDZRN3_1, Q9UPQ7; [3]
  pKd: 3.61
TJP2_1, Q9UDY2; [3]
  pKd: below the threshold
PARD3_3, Q8TEW0; [3]
  pKd: 4.53
SCRIB_2, Q14160; [3]
  pKd: below the threshold
LAP2, Q96RT1; [3]
  pKd: below the threshold
SNTB1, Q13884; [3]
  pKd: 4.27
GRIP2_3, Q9C0E4; [3]
  pKd: below the threshold
DFNB31_2, Q9P202; [3]
  pKd: below the threshold
Inadl_5, Q8NI35; [3]
  pKd: below the threshold
Inadl_4, Q8NI35; [3]
  pKd: below the threshold
PTPN13_1, Q12923; [3]
  pKd: below the threshold
Inadl_3, Q8NI35; [3]
  pKd: 3.82
SHANK1, Q9Y566; [3]
  pKd: 4.77
MAGI3_2, Q5TCQ9; [3]
  pKd: 3.5
GRASP, Q7Z6J2; [3]
  pKd: 3.9
PICK1, Q9NRD5; [3]
  pKd: below the threshold
